In patent publication US20240002536A1 (GENERAL HOSPITAL, published 2024):
Primed or numbered codes have the meaning given here. Ends that are not written are not given here. * marks the point of attachment. Biotin = O=C1N[C@H]2[C@H](CS[C@H]2CCCCC(=O)*)N1; DBCO′ = dibenzocyclooctyne

T1: Az3
T1 construct: Unclicked precursor of Az3db1; also called azide-peptide Az3; single half-peptide
T1 peptide: Biotin-SGGGERTHK(azide)

T2: db1
T2 construct: Unclicked precursor of Az3db1; also called DBCO-ARPDGG; db1 half-peptide
T2 peptide: {DBCO′}-ARPDGG

T3: Az3db1 (also: triazole at chain A 9 to a chain's N-terminus)
T3 construct: Two synthetic peptides joined through the azide-DBCO click product; conversion to the click product was >=70%; also called click product of peptides Az3 and db1; original selection peptide
T3 peptide 1: Biotin-SGGGERTHK(azide)
T3 peptide 2: {DBCO′}-ARPDGG


How the values were obtained:
Az3 [1] = target: T1, Az3; assay: phage ELISA, scFv displayed on M13
db1 [2] = target: T2, db1; assay: phage ELISA, scFv displayed on M13
Az3 [3] = target: T1, Az3; assay: competition ELISA: ratio of response slopes on immobilised Az3db1 without competitor / with soluble Az3
Procedure: (§1) We ranked the five scFv proteins 1S-5S in terms of their desired specificities and binding affinities. For this purpose, a series of ELISA-based competition assays were established, where scFvs were preincubated in solution with designated competitors before testing against immobilized target Az3db1 peptide. These included Az3db1 itself, and its constituent peptides Az3 and db1, in large (×100-fold) molar excess over the scFv proteins.
(§2) All ELISA assays used biotinylated target peptides for immobilized on streptavidin (SA) plates. For testing responses against Az3db1 (FIG. 3), a stock of the click product between peptides Az3 and db1 was made by incubating both together at 4.5 mM concentration in PBS pH 7.4 for 16 hr, conditions resulting in ≥70% conversion to the click product (FIG. 4). The resulting Az3db1 was positioned in an SA plate by incubating appropriate wells (after initial plate washing) with 100 μl of 1 pmol/μl of peptide. Dilutions of scFvs or IgG1-51 were made in PBS with 10 mg/ml bovine serum albumin (BSA) to levels typically beginning at 50 pg/μl, then in extended 2-fold dilution series from that point. Antibody or scFv dilutions were then incubated with Az3db1 target for 1 hr/room temperature, followed by treatment with appropriate secondary antibody-HRP conjugates (anti-human kappa for IgG1-51, anti-6H hexahistidine for all scFvs). After extensive washing, signals based on HRP activity from standard chromogenic substrates were read in a plate reader and collated.

Az3db1 [4] = target: T3, Az3db1; assay: competition ELISA after Friguet, plot of Ao/(Ao-A) against 1/a0 with soluble Az3Db1 competitor; one single determination
Procedure: The binding affinity of IgG1-51 antibody towards Az3db1 was measured in an ELISA-based format by the method of Friguet et al. (1985), to yield the dissociation constant (KD) from a specific data plot. Because the total concentration of free competitor in these studies is large compared to the concentration of antibody (antibody concentration ˜0.1 nm), the simplification of the Scatchard-Klotz equation as derived by Friguet et al. was used, as: […]

Az3db1 [5] = target: T3, Az3db1; assay: ELISA-based competition in solution by the method of Friguet et al.; average of four independent determinations
[6] = target: (glycan chain)--(N-acetylmannosamine)-<azide-DBCO>-ARPDGG; assay: flow cytometry on Jurkat cells pre-incubated with AzNAM and treated with Db1 peptide; DMSO-control cells treated with Db1 printed as 'Geo. Mean = 1.4'
db1 [7] = target: T2, db1; assay: competition ELISA: ratio of response slopes on immobilised Az3db1 without competitor / with soluble Db1
Procedure: as §1
as §2, with “Antibody or scFv dilutions were then incubated with Az3db1 target for 1 hr/room temperature, followed by treatment with appropriate secondary antibody-HRP conjugates (anti-human kappa for IgG1-51, anti-6H hexahistidine for all scFvs).” left out

Binder	binding result (Az3 [1])	binding result (db1 [2])	binding result (Az3 [3])	also measured
scFv-69 (scFv, VH-(GGGGS)3 linker-VL from the human phage library HuScL-6; It was also expressed as an E. coli hexahistidine (6H) fusion) scFv: QVQLVQSGSELKKPGASVKVSCKASGYTFTSYAMNWVRQAPGQGLEWMGWINTNTGNPTYAQGFTGRFVFSLDTSVSTAYLQISSLKAEDTAVYYCARGAAGVFDIWGKGTTVTVSSGGGGSGGGGSGGGGSQAVLTQPSSLSASPGASASLTCTLRSGINVGTYNIYWYQQKPGSPPQFLLRYKSDSDKQQVSGVPSRFSGSKDGSANAGILLISGLQSEDEADYYCMIWHSSAWVFGGGTKLTVLG	no binding	no binding		
scFv-36 (scFv, VH-(GGGGS)3 linker-VL from the human phage library HuScL-6; Protein ELISAs used an E. coli hexahistidine (6H) fusion; also called scFv-2S; 2S) scFv: QVQLVQSGAEVKKPGASVKVSCKASGYTFTSYGISWVRQAPGQGLEWMGWINTNTGNPTYAQGFTGRSVFSLDTSVSTAYLQISSLKAEDSAVYYCARHSDDGAFDIWGKGTMVTVSSGGGGSGGGGSGGGGSQAVLTQPSSLSASPGASASLTCTLRSGINVGTYRIYWYQQKPGSPPQYLLRYKSDSDKQQGSGVPSRFSGSKDASANAGTLLISGLQSEDEADYYCAIWHSSTWVFGGGTKVTVLG			no binding	
IgG1-51 (antibody, V domains shown, VH and VL of scFv-51 fused in frame to human Cgamma1 and Ckappa and co-expressed in Hek293 cells; also called Ab51; antibody 51; not shown: Human Gamma1 C-region, Uniprot code P01857.1; Human Kappa C-region, Uniprot code P01834.2) VH: QMQLVQSGSELKKPGASVKVSCKASGYTFTSYAMNWVRQAPGQGLEWMGWINTNTGNPTYAQGFTGRFVFSLDTSVSTAYLQISSLKAEDTAVYYCARFDRPRGAFDIWGQGTLVTVSS VL: QAVLTQPSSLSASPGASASLTCTLRSGINVGTYRIYWYQQKPGSPPQYLLRYKSDSDKQQGSGVPSRFSGSKDASANAGILLISGLQSEDEADYYCMIWHSSAWVFGGGTKLTVLG				Kd (Az3db1 [4]): 175 nM; Kd (Az3db1 [5]): 160 nM; geometric mean fluorescence (Geo. Mean) [6]: 226
scFv-83 (scFv, VH-(GGGGS)3 linker-VL from the human phage library HuScL-6; expression as a protein failed) scFv: QVQLVQSGAEVKKPGASVKVSCKASGYSFTSYAMNWVRQAPGQGLEWMGWINTNTGNPMYAQGFTGRFVFSLDTSVSTAYLEVSSLKAEDTAVYFCARYNAMDVWGQGTTVTVSSGGGGSGGGGSGGGGSQAVLTQPSSLSASPGASASLTCTLRSGINVGTYRIYWYQQKPGSPPQYLLRYKSDSDKQQGSGVPSRFSGSKDASANAGILLISGLQSEDEADYYCMIWHSSAWVFGGGTKVTVLG	no binding	no binding		
scFv-18 (scFv, VH-(GGGGS)3 linker-VL from the human phage library HuScL-6; Protein ELISAs used an E. coli hexahistidine (6H) fusion; also called scFv-1S; 1S) scFv: QVQLVESGSELKKPGASVKVSCKASGYTFTNYAMNWVRQAPGQGLEWLGWINTNTGNPTYAQGFTGRFVFSLDTSVSTAYLQISSLKAEDTAVYYCARGSLGGTFDYWGQGTPVTVSSGGGGSGGGGSGGGGSQAVLTQPSSLSASPGASASLTCTLRSGINVGTYRIYWYQQKPGSPPQYLLRYKSDSDKHQDSGVPSRFSGSTDASANAGILLISGLQSEDEADYYCMIWHSRAWVFGGGTRGEIKR			no binding	binding result (db1 [7]): no binding
scFv-72 (scFv, VH-(GGGGS)3 linker-VL from the human phage library HuScL-6; expression as a protein failed) scFv: EVQLVESGAEVKKPGASVKVSCKASGYTFTSYAMNWVRQAPGQGLEWMGWINTNTGNPTYAQGFTGRFVFSLDTSVSTAYLQISSLKAEDTAVYYCARQRDYRMDVWGQGTMVTVSSGGGGSGGGGSGGGGSQAVLTQPSSLSASPGASASLTCTLRSGINVGTYRIYWYQQKPGSPPQYLLRYKSDSDKQQASGVPSRFSGSKDASANAGILLISGLQSEDEADYYCLIWHNNAWVFGGGTKVTVLG	no binding	no binding		
scFv-64 (scFv, VH-(GGGGS)3 linker-VL from the human phage library HuScL-6; It was also expressed as an E. coli hexahistidine (6H) fusion) scFv: EVQLVESGSELKKPGASVKVSCKASGYTFTSYAINWVRQAPGQGLEWMGWINTNTGNPTYAQGFTGRFVFSLDTSVSTAYLQISSLKAEDTAVYYCARGYYDSSGYNFDYWGKGTLVTVSSGGGGSGGGGSGGGGSQAVLTQPSSLSASPGASASLTCTLRSGINVGTYRIYWYQQKPGSPPQYLLRYKSDSDKQQGSGVPSRFSGSKDASANAGILLISGLQSEDEADYYCMIWHSSAWVFGGGTKLTVLG	no binding	no binding		
scFv-44 (scFv, VH-(GGGGS)3 linker-VL from the human phage library HuScL-6; Protein ELISAs used an E. coli hexahistidine (6H) fusion; also called scFv-3S; 3S) scFv: QVQLVQSGAEVKKPGSSVKVSCKASGYTFADYAINWVRQAPGQGLEWMGWINTNTGNPTYAQGFTGRFVFSLDTSVSTAYLQISSLEAEDTAVYYCARHFSGYSLDAVDIWGQGTLVTVSSGGGGSGGGGSGGGGSQAVLTQPSSLSASPGTSASLTCTLRSDINVGAYRIYWYKHKAGSPPQFLLRFKSDSDNYRGSGVPGRFSGSKDASANAGILLISGLQSEDEADYYCAIWHSSTWVFGGGTKLTVLG			no binding	binding result (db1 [7]): no binding
